Experimental data as given in doi:10.1101/2024.02.22.581614 (bioRxiv, 2024).

Molecular target: T1, Extant nitrogenase molybdenum-iron protein alpha chain, NifD (A. vinelandii) (Azotobacter vinelandii, UniProt P07328 1-492)
T1 sequence (looked up): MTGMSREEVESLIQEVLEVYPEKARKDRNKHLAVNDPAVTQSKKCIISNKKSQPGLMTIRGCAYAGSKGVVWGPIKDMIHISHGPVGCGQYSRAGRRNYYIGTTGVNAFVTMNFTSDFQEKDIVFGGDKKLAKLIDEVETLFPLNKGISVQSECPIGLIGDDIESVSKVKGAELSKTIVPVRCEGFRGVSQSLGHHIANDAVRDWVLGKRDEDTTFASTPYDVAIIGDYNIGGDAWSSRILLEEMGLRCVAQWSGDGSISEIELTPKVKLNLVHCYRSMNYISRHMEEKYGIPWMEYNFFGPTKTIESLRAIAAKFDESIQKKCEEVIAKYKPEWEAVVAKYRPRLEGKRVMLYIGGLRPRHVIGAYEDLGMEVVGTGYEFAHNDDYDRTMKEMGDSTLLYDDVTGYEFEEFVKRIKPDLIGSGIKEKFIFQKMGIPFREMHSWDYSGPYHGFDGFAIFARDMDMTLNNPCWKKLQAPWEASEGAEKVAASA
Test: affinity co-purification

stoichiometry N: 0.93 D:K
B1: Extant nitrogenase molybdenum-iron protein beta chain, NifK (A. vinelandii) (enzyme, Azotobacter vinelandii, UniProt P07329 1-523, looked up)
chain: MSQQVDKIKASYPLFLDQDYKDMLAKKRDGFEEKYPQDKIDEVFQWTTTKEYQELNFQREALTVNPAKACQPLGAVLCALGFEKTMPYVHGSQGCVAYFRSYFNRHFREPVSCVSDSMTEDAAVFGGQQNMKDGLQNCKATYKPDMIAVSTTCMAEVIGDDLNAFINNSKKEGFIPDEFPVPFAHTPSFVGSHVTGWDNMFEGIARYFTLKSMDDKVVGSNKKINIVPGFETYLGNFRVIKRMLSEMGVGYSLLSDPEEVLDTPADGQFRMYAGGTTQEEMKDAPNALNTVLLQPWHLEKTKKFVEGTWKHEVPKLNIPMGLDWTDEFLMKVSEISGQPIPASLTKERGRLVDMMTDSHTWLHGKRFALWGDPDFVMGLVKFLLELGCEPVHILCHNGNKRWKKAVDAILAASPYGKNATVYIGKDLWHLRSLVFTDKPDFMIGNSYGKFIQRDTLHKGKEFEVPLIRIGFPIFDRHHLHRSTTLGYEGAMQILTTLVNSILERLDEETRGMQATDYNHDLVR
